Measured values as given in patent publication US20230071371A1 (Scripps Research, published 2023).
Bridges are numbered along the chain shown (N, C = ends). Where no end group is shown, it is not given here. L1 = not defined here; L3 = not defined here; L4 = not defined here; L5 = not defined here

T1: GPR10 (UniProt P49683 1-370, limits assumed)
T1 sequence (looked up): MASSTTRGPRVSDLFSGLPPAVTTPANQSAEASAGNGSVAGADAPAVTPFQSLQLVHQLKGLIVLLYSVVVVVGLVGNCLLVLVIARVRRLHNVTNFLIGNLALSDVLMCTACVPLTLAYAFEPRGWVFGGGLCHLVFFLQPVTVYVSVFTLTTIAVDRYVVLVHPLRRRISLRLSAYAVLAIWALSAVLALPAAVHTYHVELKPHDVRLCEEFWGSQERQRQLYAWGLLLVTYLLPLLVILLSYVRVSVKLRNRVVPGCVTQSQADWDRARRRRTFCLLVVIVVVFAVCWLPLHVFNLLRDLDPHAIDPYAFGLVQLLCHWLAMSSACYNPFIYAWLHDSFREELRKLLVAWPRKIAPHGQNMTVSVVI


Molecular target: T1, GPR10
Experiment: cell-based or functional assay

| GPR10 EC50 [nM] | Binder |
| --- | --- |
| 230 | CRAHQHSCETRTPDINPAWYTGRGIRPVGRF-NH2 (linker 1-8 via L4; reading uncertain) [Conjugate 234] |
| 16 | TPCINPAWYCGRGIRPVGRF-NH2 (cysteine pairing not given here) [SEQ ID NO 104] |
| 330 | CRAHQHSCETRTPDINPAWYTGRGIRPVGRF-NH2 (linker 1-8 via L5; reading uncertain) [Conjugate 235] |
| 1500 | SRAHQHSMETRTCDINPAWCTGRGIRPVGRF-NH2 (linker 13-20 via L5; reading uncertain) [Conjugate 241] |
| 230 | TCDINPAWCTGRGIRPVGRF-NH2 (linker 2-9 via L4; reading uncertain) [Conjugate 214] |
| 10 | TPDCNPAWYTCRGIRPVGRF-NH2 (cysteine pairing not given here) [SEQ ID NO 105] |
| 33 | TPDINPCWYTGRGCRPVGRF-NH2 (cysteine pairing not given here) [SEQ ID NO 85] |
| 17 | SRAHQHSMETRTCDINPAWCTGRGIRPVGRF-NH2 (linker 13-20 via L3; reading uncertain) [Conjugate 239] |
| 24 | CRAHQHSCETRTPDINPAWYTGRGIRPVGRF-NH2 (linker 1-8 via L1; reading uncertain) [Conjugate 225] |
| 160 | TPDINPAWCTGRGIRCVGRF-NH2 (linker 9-16 via L1; reading uncertain) [Conjugate 211] |
| 1600 | TPDINPAWYCGRGIRPCGRF-NH2 (cysteine pairing not given here) [SEQ ID NO 88] |
| 33 | TCDINPAWCTGRGIRPVGRF-NH2 (linker 2-9 via L3; reading uncertain) [Conjugate 213] |
| 10 | SRAHQHSMETRTPDCNPAWYTCRGIRPVGRF-NH2 (linker 15-22 via L1; reading uncertain) [Conjugate 229] |
| 10 | TPDINPCWYTGRGCRPVGRF-NH2 (linker 7-14 via L1; reading uncertain) [Conjugate 209] |
| 41 | SRAHQHSMCTRTPDICPAWYTGRGIRPVGRF-NH2 (cysteine pairing not given here) [SEQ ID NO 91] |
| 21 | TPCINPAWYCGRGIRPVGRF-NH2 (linker 3-10 via L1; reading uncertain) [Conjugate 205] |
| 5.2 | TPDINPCWYTGRGCRPVGRF-NH2 (linker 7-14 via L3; reading uncertain) [Conjugate 222] |
| 25 | TPDICPAWYTGCGIRPVGRF-NH2 (linker 5-12 via L3; reading uncertain) [Conjugate 219] |
| 6800 | TPDINPACYTGRGICPVGRF-NH2 (cysteine pairing not given here) [SEQ ID NO 86] |
| 17 | CRAHQHSCETRTPDINPAWYTGRGIRPVGRF-NH2 (linker 1-8 via L3; reading uncertain) [Conjugate 233] |
| 13 | TPDICPAWYTGCGIRPVGRF-NH2 (linker 5-12 via L1; reading uncertain) [Conjugate 207] |
| 840 | TPDICPAWYTGCGIRPVGRF-NH2 (linker 5-12 via L5; reading uncertain) [Conjugate 221] |
| 44 | TPDICPAWYTGCGIRPVGRF-NH2 (cysteine pairing not given here) [SEQ ID NO 83] |

| GPR10 EC50 [nM] | Binder |
| --- | --- |
| 120 | TPDINPAWCTGRGIRCVGRF-NH2 (cysteine pairing not given here) [SEQ ID NO 87] |
| 18 | TPDINCAWYTGRCIRPVGRF-NH2 (cysteine pairing not given here) [SEQ ID NO 84] |
| > 10000 | TPDINPAWYCGRGIRPCGRF-NH2 (linker 10-17 via L1; reading uncertain) [Conjugate 212] |
| 85 | SRAHQHSMCTRTPDICPAWYTGRGIRPVGRF-NH2 (linker 9-16 via L1; reading uncertain) [Conjugate 227] |
| 620 | TCDINPAWCTGRGIRPVGRF-NH2 (linker 2-9 via L5; reading uncertain) [Conjugate 215] |
| 18 | SRAHQHSMETRTCDINPAWCTGRGIRPVGRF-NH2 (cysteine pairing not given here) [SEQ ID NO 92] |
| 7.3 | TPDCNPAWYTCRGIRPVGRF-NH2 (linker 4-11 via L1; reading uncertain) [Conjugate 206] |
| 40 | SRAHQHSMETRTCDINPAWCTGRGIRPVGRF-NH2 (linker 13-20 via L1; reading uncertain) [Conjugate 228] |
| > 1000 | TPDINPCWYTGRGCRPVGRF-NH2 (linker 7-14 via L5; reading uncertain) [Conjugate 224] |
| 81 | TPDCNPAWYTCRGIRPVGRF-NH2 (linker 4-11 via L5; reading uncertain) [Conjugate 218] |
| 630 | SRAHQHSMETRTCDINPAWCTGRGIRPVGRF-NH2 (linker 13-20 via L4; reading uncertain) [Conjugate 240] |
| 77 | TPDCNPAWYTCRGIRPVGRF-NH2 (linker 4-11 via L4; reading uncertain) [Conjugate 217] |
| 3.9 | TPDCNPAWYTCRGIRPVGRF-NH2 (linker 4-11 via L3; reading uncertain) [Conjugate 216] |
| 17 | SRAHQHSMETRTPDCNPAWYTCRGIRPVGRF-NH2 (cysteine pairing not given here) [SEQ ID NO 93] |
| 720 | TPDINPACYTGRGICPVGRF-NH2 (linker 8-15 via L1; reading uncertain) [Conjugate 210] |
| 16 | CRAHQHSCETRTPDINPAWYTGRGIRPVGRF-NH2 (cysteine pairing not given here) [SEQ ID NO 89] |
| 6.1 | SRAHQHSMETRTPDCNPAWYTCRGIRPVGRF-NH2 (linker 15-22 via L3; reading uncertain) [Conjugate 242] |
| 33 | TCDINPAWCTGRGIRPVGRF-NH2 (cysteine pairing not given here) [SEQ ID NO 103] |
| 13 | TPDINPAWYTGRGIRPVGRF-NH2 [SEQ ID NO 106] |
| 610 | TPDICPAWYTGCGIRPVGRF-NH2 (linker 5-12 via L4; reading uncertain) [Conjugate 220] |
| 12 | TCDINPAWCTGRGIRPVGRF-NH2 (linker 2-9 via L1; reading uncertain) [Conjugate 204] |
| 15 | TPDINCAWYTGRCIRPVGRF-NH2 (linker 6-13 via L1; reading uncertain) [Conjugate 208] |
| > 1000 | TPDINPCWYTGRGCRPVGRF-NH2 (linker 7-14 via L4; reading uncertain) [Conjugate 223] |
